Measured values published in patent US20230279119A1 (published 2023).

Biological target: T1, recombinant αvβ8 ectodomain (UniProt P06756 31-992; P26012 43-684, limits assumed)
T1 construct: extracellular domain; the ELISA and TMLC assays say only 'recombinant αvβ8'; also called immobilized αvβ8; integrin αvβ8
Test: scFv KD; method not stated (yeast-displayed scFv library was sorted with recombinant αvβ8 ectodomain)

T1 sequence (P06756 31-992 limits assumed, chain 1 of 2): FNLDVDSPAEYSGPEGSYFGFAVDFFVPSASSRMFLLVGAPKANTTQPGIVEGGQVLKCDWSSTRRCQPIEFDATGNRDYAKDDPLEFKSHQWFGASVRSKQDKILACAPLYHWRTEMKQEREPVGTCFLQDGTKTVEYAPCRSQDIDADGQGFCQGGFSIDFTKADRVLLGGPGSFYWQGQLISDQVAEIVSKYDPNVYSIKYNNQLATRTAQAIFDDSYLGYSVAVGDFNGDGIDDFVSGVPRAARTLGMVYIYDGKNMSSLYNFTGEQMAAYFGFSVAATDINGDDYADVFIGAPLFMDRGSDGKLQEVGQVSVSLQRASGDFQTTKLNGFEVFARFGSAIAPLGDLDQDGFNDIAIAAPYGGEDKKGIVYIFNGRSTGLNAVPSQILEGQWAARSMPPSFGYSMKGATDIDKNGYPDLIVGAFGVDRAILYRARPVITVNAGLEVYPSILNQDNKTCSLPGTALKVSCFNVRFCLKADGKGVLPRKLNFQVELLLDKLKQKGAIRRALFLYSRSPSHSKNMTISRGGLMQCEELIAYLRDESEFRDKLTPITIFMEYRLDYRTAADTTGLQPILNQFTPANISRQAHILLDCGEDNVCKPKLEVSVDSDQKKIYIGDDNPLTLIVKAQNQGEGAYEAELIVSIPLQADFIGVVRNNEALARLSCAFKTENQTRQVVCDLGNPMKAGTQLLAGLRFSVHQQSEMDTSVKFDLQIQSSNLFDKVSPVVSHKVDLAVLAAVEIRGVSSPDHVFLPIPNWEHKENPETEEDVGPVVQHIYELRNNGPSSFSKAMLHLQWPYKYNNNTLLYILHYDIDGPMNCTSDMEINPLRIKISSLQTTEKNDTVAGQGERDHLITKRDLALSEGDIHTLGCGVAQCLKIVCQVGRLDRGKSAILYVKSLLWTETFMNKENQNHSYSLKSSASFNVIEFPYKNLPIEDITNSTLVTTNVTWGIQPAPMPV
T1 sequence (P26012 43-684 limits assumed, chain 2 of 2): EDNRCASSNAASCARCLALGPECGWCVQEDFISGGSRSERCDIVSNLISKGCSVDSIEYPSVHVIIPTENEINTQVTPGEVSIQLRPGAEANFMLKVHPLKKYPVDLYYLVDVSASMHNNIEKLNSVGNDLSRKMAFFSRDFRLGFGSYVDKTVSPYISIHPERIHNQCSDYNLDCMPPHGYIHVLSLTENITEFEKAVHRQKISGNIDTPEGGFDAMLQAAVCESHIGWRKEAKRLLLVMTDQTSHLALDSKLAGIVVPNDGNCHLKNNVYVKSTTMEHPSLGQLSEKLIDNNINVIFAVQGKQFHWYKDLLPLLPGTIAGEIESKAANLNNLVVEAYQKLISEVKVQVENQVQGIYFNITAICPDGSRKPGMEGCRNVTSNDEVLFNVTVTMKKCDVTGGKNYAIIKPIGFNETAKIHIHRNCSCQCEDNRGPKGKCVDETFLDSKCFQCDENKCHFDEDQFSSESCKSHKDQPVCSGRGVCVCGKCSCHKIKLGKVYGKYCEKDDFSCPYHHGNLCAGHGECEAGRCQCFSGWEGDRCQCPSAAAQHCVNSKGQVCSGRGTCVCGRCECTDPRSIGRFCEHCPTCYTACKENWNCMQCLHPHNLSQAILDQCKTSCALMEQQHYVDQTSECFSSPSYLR

B1: HuC6D4F12 scFv (scFv, V domains shown)
VH: QIQLVQSGAEVKKPGASVKISCKASGYTFTKYSMHWVRQAPGQGLEWVARINTETGEPTFADDFRGRFTVTLDTSTSTAYLEIRSLRSDDTAVYFCAIFYYGRDTWGQGTTLTVSS
VL: EIVMTQSPATLSVSPGERVTMSCKSSQSLLHSRSRKNYLAWYQQKPGQAPRLLIYWASTRESGVPARFSGSGSGTEFTLTISSVQSEDFAVYYCKQSYNLLSFGQGTVLEIK
notes: not shown: The scFv linker, the domain order, and the yeast-display partner and tags (vector pYD4)
Kd: 0.39 nM

B2: C6D4 scFv (scFv, V domains shown)
VH: QIQLVQSGPELKKPGETVKISCKASGYTFTDYSMHWVKQAPGKGLKWVARINTETGEPTFADDFRGRFAVSLETSASTAYLQINNLKNEDTATYFCAIFYYGRDSWGQGTTLTVSS
VL: DIVMTQSPSSLAVSAGEKVTMSCKSSQSLLNSRTRKNYLAWYQQKPGQSPRLLIYWASTRESGVPDRFTGSGSGTDFTLTISSVQAEDLAVYYCKQSYNLLSFGAGTKLELK
notes: as for B1
Kd: 7.25 nM
